Values belong to the substance of their own block, whether it stands above or below them.
Columns and labels:
Human EphA2 (human) [1] = target: Human EphA2 (human) (UniProt P29317); assay: IHC/IF on frozen human tumor tissue: ANC
Human EphA2 (human) [2] = target: Human EphA2 (human) (UniProt P29317); assay: IHC/IF on frozen human tumor tissue: CRC
Human EphA2 (human) [3] = target: Human EphA2 (human) (UniProt P29317); assay: IHC/IF on frozen human tumor tissue: ESO
Human EphA2 (human) [4] = target: Human EphA2 (human) (UniProt P29317); assay: IHC/IF on frozen human tumor tissue: GAC
Human EphA2 (human) [5] = target: Human EphA2 (human) (UniProt P29317); assay: IHC/IF on frozen human tumor tissue: HNC
Human EphA2 (human) [6] = target: Human EphA2 (human) (UniProt P29317); assay: IHC/IF on frozen human tumor tissue: OVA
Human EphA2 (human) [7] = target: Human EphA2 (human) (UniProt P29317); assay: IHC/IF on frozen human tumor tissue: STS
Human EphA2 (human) [8] = target: Human EphA2 (human) (UniProt P29317); assay: IHC/IF on frozen human tumor tissue: URO
Human EphA2 (human) [9] = target: Human EphA2 (human) (UniProt P29317); assay: IHC/IF on frozen human tumor tissue: MELA
Human EphA2 (human) [10] = target: Human EphA2 (human) (UniProt P29317); assay: IHC/IF on frozen human tumor tissue: PANC
Human EphA2 (human) [11] = target: Human EphA2 (human) (UniProt P29317); assay: IHC/IF on frozen human tumor tissue: PROC
Human EphA2 (human) [12] = target: Human EphA2 (human) (UniProt P29317); assay: IHC/IF on frozen human tumor tissue: TNBC
Human EphA2 (human) [13] = target: Human EphA2 (human) (UniProt P29317); assay: IHC/IF on frozen human tumor tissue: ER+ BRC
Human EphA2 (human) [14] = target: Human EphA2 (human) (UniProt P29317); assay: IHC/IF on frozen human tumor tissue: NSCLC-SQ
Human EphA2 (human) [15] = target: Human EphA2 (human) (UniProt P29317); assay: IHC/IF on frozen human tumor tissue: Her2+ BRC
Human EphA2 (human) [16] = target: Human EphA2 (human) (UniProt P29317); assay: IHC/IF on frozen human tumor tissue: NSCLC-Adeno
Human EphA2 (human) [17] = target: Human EphA2 (human) (UniProt P29317); assay: IHC/IF on frozen human tumor tissue: RCC-papillary
Human EphA2 (human) [18] = target: Human EphA2 (human) (UniProt P29317); assay: IHC/IF on frozen human tumor tissue: RCC-clear cell
Human EphA2 (human) [19] = target: Human EphA2 (human) (UniProt P29317); assay: IHC/IF on frozen human tumor tissue: UCEC-papillary
Human EphA2 (human) [20] = target: Human EphA2 (human) (UniProt P29317); assay: IHC/IF on frozen human tumor tissue: UCEC-clear cell
Human EphA2 (human) [21] = target: Human EphA2 (human) (UniProt P29317); assay: IHC/IF on frozen human tumor tissue: UCEC-endometrioid
[22] = target: Human EphA2 (ephrin receptor A2), native, in human tumor tissue (human) (UniProt P29317); assay: tissue staining of human cancer samples, 3 ug/ml
[23] = target: Human EphA2 (ephrin receptor A2), native, in human tumor tissue (human) (UniProt P29317); assay: tissue staining of human cancer samples, 30 ug/ml (the box on the sheet prints AB-010017 twice)
[24] = target: Human EphA2 (ephrin receptor A2), native, in human tumor tissue (human) (UniProt P29317); assay: tissue staining of human cancer samples, 30 ug/ml

IHC score (Human EphA2 (human) [1]): 2 | IHC score (Human EphA2 (human) [2]): 1 | IHC score (Human EphA2 (human) [3]): 2 | IHC score (Human EphA2 (human) [4]): 1 | IHC score (Human EphA2 (human) [5]): 1 | IHC score (Human EphA2 (human) [6]): 1 | IHC score (Human EphA2 (human) [7]): 1 | IHC score (Human EphA2 (human) [8]): 1 | IHC score (Human EphA2 (human) [9]): 2 | IHC score (Human EphA2 (human) [10]): 1 | IHC score (Human EphA2 (human) [11]): 1 | IHC score (Human EphA2 (human) [12]): 1 | IHC score (Human EphA2 (human) [13]): 1 | IHC score (Human EphA2 (human) [14]): 1 | IHC score (Human EphA2 (human) [15]): 1 | IHC score (Human EphA2 (human) [16]): 1 | IHC score (Human EphA2 (human) [17]): 1 | IHC score (Human EphA2 (human) [18]): 1 | IHC score (Human EphA2 (human) [19]): 2 | IHC score (Human EphA2 (human) [20]): 2 | IHC score (Human EphA2 (human) [21]): 1
Substance: 6997S (around Arg907) (antibody)

Reactive (% of samples), Bladder Urothelial Carcinoma [22]: 33% | Reactive (% of samples), Breast Cancer [22]: 0% | Reactive (% of samples), Cervical Squamous Cell Carcinoma [22]: 0% | Reactive (% of samples), Colorectal Adenocarcinoma [22]: 10% | Reactive (% of samples), Head & Neck Squamous Cell Carcinoma [22]: 0% | Reactive (% of samples), Liver Hepatocellular Cell Carcinoma [22]: 7% | Reactive (% of samples), Melanoma [22]: 0% | Reactive (% of samples), Non-Small Cell Lung Cancer [22]: 5% | Reactive (% of samples), Ovarian Cancer [22]: 0% | Reactive (% of samples), Renal Cancer [22]: 0% | Reactive (% of samples), Soft Tissue Sarcoma [22]: 0% | Reactive (% of samples), Stomach Adenocarcinoma [22]: 0% | Reactive (% of samples), Testicular Cancer [22]: 0% | Reactive (% of samples), Thyroid Cancer [22]: 0% | Reactive (% of samples), Uterine Cancer [22]: 0% | Reactive (% of samples), Bladder Cancer (Urothelial) [23]: 50% | Reactive (% of samples), Breast Cancer [23]: 47% | Reactive (% of samples), Cervical Cancer (Squamous) [23]: 40% | Reactive (% of samples), Colorectal Cancer (Adenocarcinoma) [23]: 40% | Reactive (% of samples), Esophageal Cancer (Squamous) [23]: 27% | Reactive (% of samples), Liver Cancer (HCC) [23]: 80% | Reactive (% of samples), Melanoma [23]: 29% | Reactive (% of samples), Non-Small Cell Lung Cancer [23]: 26% | Reactive (% of samples), Ovarian Cancer [23]: 53% | Reactive (% of samples), Renal Cancer [23]: 0% | Reactive (% of samples), Soft Tissue Sarcoma [23]: 9% | Reactive (% of samples), Stomach Cancer (Adenocarcinoma) [23]: 50% | Reactive (% of samples), Testicular Cancer [23]: 28% | Reactive (% of samples), Thyroid Cancer [23]: 44% | Reactive (% of samples), Uterine Cancer [23]: 21%
Substance: AB-010016 (based on Medi-547; mouse IgG2a format) (antibody)

Reactive (% of samples), Bladder Urothelial Carcinoma [22]: 50% | Reactive (% of samples), Breast Cancer [22]: 0% | Reactive (% of samples), Cervical Squamous Cell Carcinoma [22]: 27% | Reactive (% of samples), Head & Neck Squamous Cell Carcinoma [22]: 38% | Reactive (% of samples), Liver Hepatocellular Cell Carcinoma [22]: 0% | Reactive (% of samples), Non-Small Cell Lung Cancer [22]: 11% | Reactive (% of samples), Ovarian Cancer [22]: 6% | Reactive (% of samples), Renal Cancer [22]: 0% | Reactive (% of samples), Soft Tissue Sarcoma [22]: 3% | Reactive (% of samples), Stomach Adenocarcinoma [22]: 25% | Reactive (% of samples), Testicular Cancer [22]: 0% | Reactive (% of samples), Thyroid Cancer [22]: 8% | Reactive (% of samples), Bladder Cancer (Urothelial) [24]: 38% | Reactive (% of samples), Breast Cancer [24]: 8% | Reactive (% of samples), Cervical Cancer (Squamous) [24]: 36% | Reactive (% of samples), Colorectal Cancer (Adenocarcinoma) [24]: 10% | Reactive (% of samples), Esophageal Cancer (Squamous) [24]: 13% | Reactive (% of samples), Liver Cancer (HCC) [24]: 43% | Reactive (% of samples), Melanoma [24]: 7% | Reactive (% of samples), Non-Small Cell Lung Cancer [24]: 5% | Reactive (% of samples), Ovarian Cancer [24]: 47% | Reactive (% of samples), Renal Cancer [24]: 12% | Reactive (% of samples), Soft Tissue Sarcoma [24]: 3% | Reactive (% of samples), Stomach Cancer (Adenocarcinoma) [24]: 25% | Reactive (% of samples), Testicular Cancer [24]: 0% | Reactive (% of samples), Thyroid Cancer [24]: 0% | Reactive (% of samples), Uterine Cancer [24]: 7%
Substance: AB-010017 (based on MM-310; mouse IgG2a format) (antibody)

IHC score (Human EphA2 (human) [1]): 1 | IHC score (Human EphA2 (human) [2]): 1 | IHC score (Human EphA2 (human) [3]): 1 | IHC score (Human EphA2 (human) [4]): 1 | IHC score (Human EphA2 (human) [5]): 1 | IHC score (Human EphA2 (human) [6]): 1 | IHC score (Human EphA2 (human) [7]): 1 | IHC score (Human EphA2 (human) [8]): 1 | IHC score (Human EphA2 (human) [9]): 2 | IHC score (Human EphA2 (human) [10]): 1 | IHC score (Human EphA2 (human) [11]): 1 | IHC score (Human EphA2 (human) [12]): 1 | IHC score (Human EphA2 (human) [13]): 1 | IHC score (Human EphA2 (human) [14]): 2 | IHC score (Human EphA2 (human) [15]): 1 | IHC score (Human EphA2 (human) [16]): 2 | IHC score (Human EphA2 (human) [17]): 1 | IHC score (Human EphA2 (human) [18]): 1 | IHC score (Human EphA2 (human) [19]): 1 | IHC score (Human EphA2 (human) [20]): 2 | IHC score (Human EphA2 (human) [21]): 1
Substance: Ab73254 (extracellular) (antibody)
